The target in data set [1] is T1, EWS RRM-RG2 (UniProt Q01844 361-517).
T1 sequence: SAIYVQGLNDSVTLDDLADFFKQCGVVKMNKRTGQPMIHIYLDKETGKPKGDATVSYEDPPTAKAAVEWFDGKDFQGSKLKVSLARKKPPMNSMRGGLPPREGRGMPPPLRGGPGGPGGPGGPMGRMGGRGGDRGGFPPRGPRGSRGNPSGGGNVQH
Description: EMSA. For orientation: Mobility shift assays separate free from complexed probe on a gel.

Data set [2] deals with T2, EWS RRM-RG2-ZnF (UniProt Q01844 361-549). The experiment in a line: EMSA.
For data set [3], the target named is T1, EWS RRM-RG2. The experiment in a line: ITC. For orientation: ITC needs no label: the signal is the heat of the interaction.
The target of data set [4] is T2, EWS RRM-RG2-ZnF. Description: ITC.
Target sequence in this assay (Q01844 361-549): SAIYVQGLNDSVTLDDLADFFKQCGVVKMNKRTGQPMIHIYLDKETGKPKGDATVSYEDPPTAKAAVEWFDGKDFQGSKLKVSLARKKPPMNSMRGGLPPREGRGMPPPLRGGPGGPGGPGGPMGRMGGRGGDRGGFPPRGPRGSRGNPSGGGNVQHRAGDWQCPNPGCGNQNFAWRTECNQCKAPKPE
Data set [5] addresses T3, EWS RRM (UniProt Q01844 361-447).
T3 sequence: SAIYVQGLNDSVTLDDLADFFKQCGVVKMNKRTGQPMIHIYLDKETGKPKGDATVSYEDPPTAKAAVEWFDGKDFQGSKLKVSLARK
The experiment in a line: ITC.

The target in data set [6] is T1, EWS RRM-RG2. Description: EMSA. The source holds these as a separate data set.
The target in data set [7] is T2, EWS RRM-RG2-ZnF. Description: EMSA. The source holds these as a separate data set.

Where two headings read alike, the source gives them in different places.

Here are results for three molecules from paper PMC10233817.

B1: SON-GGU (structured_RNA)
RNA: GGAUCUUUAACUACUCAAGAUACUGAACAUGACAUGGUA
With B1, the binding result in data set [1] and in data set [2] was “binds” throughout.

B2: pu20m2 DNA G4 (structured_DNA)
DNA: TAAGGGAGGGCGGGAGGGAA
One may read the Kd as the concentration at which binding is half-saturated. The low end stands for tighter binding, the high end for weaker binding. In the case of B2, the figures for the Kd in data set [3], in data set [4] and in data set [5] were 3.28 ± 0.5 µM, 3.96 ± 0.7 µM and 22.3 ± 6.8 µM, respectively.

B3: RNA:DNA hybrid (DNA:RNA)
RNA: GCAGCUGGCACGACAGGUAUGAAUC
DNA: GATTCATACCTGTCGTGCCAGCTGC
Take B3: the binding result in data set [6] and in data set [7] was “binds” each time.
